Experimental findings from patent US20240116985A1, “STAPLED PEPTIDES AND METHODS THEREOF” (priority 2020, published 2024) are described below.

The first experiment concerns the target full-length beta-Catenin (Uniprot ID P35222) (Homo sapiens (Human)) (UniProt P35222). The experiment is described as follows: fluorescence polarization competition; full-length beta-catenin, 5FAM-TCF4(10-53) probe displaced.
Target sequence in this assay (P35222 whole entry): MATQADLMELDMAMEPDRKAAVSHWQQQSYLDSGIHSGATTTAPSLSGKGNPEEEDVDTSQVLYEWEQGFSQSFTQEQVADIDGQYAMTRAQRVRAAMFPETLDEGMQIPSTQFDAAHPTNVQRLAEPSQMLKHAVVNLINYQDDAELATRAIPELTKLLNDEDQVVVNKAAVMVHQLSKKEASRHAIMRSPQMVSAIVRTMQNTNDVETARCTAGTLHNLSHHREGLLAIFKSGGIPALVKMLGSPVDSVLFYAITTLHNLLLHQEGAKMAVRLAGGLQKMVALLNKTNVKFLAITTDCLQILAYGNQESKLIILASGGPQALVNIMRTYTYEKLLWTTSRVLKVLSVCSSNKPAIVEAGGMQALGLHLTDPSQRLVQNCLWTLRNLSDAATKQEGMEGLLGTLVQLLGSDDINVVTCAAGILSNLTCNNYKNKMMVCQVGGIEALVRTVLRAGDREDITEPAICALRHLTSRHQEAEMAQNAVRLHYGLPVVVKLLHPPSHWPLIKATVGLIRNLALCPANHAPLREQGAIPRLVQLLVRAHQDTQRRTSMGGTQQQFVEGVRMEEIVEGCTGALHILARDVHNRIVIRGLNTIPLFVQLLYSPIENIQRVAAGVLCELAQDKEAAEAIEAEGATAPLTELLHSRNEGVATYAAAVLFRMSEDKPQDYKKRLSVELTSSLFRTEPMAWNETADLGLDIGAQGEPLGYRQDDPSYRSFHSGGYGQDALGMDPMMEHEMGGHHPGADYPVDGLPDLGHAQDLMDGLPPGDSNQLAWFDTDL
“Ac-PL3-Asp-Npg-B5-Asp-Asp-Ala-Ala-Phe-Leu-PyrS2-2CNF-BztA-Gln-NH2 (peptide)”: the IC50 – broadly, the concentration at which inhibition is half-maximal – is 16 nM. In other words, the double-digit nanomolar range.
Regarding “Ac-PL3-Asp-Npg-B5-Asp-Asp-Ala-Ala-Phe-Leu-PyrS2-3CNF-BztA-Gln-NH2 (peptide)”, the IC50 was 81 nM. This IC50 is about 5.1-fold higher than that of the substance before.
Consider “Ac-PL3-Asp-Npg-B5-Asp-Asp-Ala-Ala-Phe-Leu-PyrS2-4CNF-BztA-Gln-NH2 (peptide)”, for which the IC50 is 987 nM.
The same measure, in the same setting: the same measure for “MeSO2-PL3-Asp-Npg-B5-Asp-Asp-Ala-Ala-Phe-Asn-PyrS2-3Thi-BztA-Gln-NH2 (peptide)”: 10 nM; for “MeSO2-PL3-Asp-Npg-B5-Asp-TfeGA-Ala-Ala-Phe-Asn-PyrS2-3Thi-BztA-Gln-NH2 (peptide)”: 7 nM.

The target is the same in a further experiment. The experiment is described as follows: fluorescence polarization competition; displacement of 5FAM-TCF4(10-53) from full-length beta-catenin. A general note: Polarisation of emitted light reports the rotation of a fluorescent probe.
Target sequence in this assay (P35222 whole entry): as above
“I-1519: Ac-PL3-Asp-Cha-B5-Asp-Asp-Ala-Ala-Phe-Leu-PyrS2-3Thi-BztA-Gln-NH2 (peptide)” gave an IC50 of 10 nM.

The target is the same in a further experiment. The experiment in a line: fluorescence polarization competition; full-length beta-catenin, 5FAM-TCF4(10-53) probe as competitor.
Target sequence in this assay (P35222 2-781 limits assumed): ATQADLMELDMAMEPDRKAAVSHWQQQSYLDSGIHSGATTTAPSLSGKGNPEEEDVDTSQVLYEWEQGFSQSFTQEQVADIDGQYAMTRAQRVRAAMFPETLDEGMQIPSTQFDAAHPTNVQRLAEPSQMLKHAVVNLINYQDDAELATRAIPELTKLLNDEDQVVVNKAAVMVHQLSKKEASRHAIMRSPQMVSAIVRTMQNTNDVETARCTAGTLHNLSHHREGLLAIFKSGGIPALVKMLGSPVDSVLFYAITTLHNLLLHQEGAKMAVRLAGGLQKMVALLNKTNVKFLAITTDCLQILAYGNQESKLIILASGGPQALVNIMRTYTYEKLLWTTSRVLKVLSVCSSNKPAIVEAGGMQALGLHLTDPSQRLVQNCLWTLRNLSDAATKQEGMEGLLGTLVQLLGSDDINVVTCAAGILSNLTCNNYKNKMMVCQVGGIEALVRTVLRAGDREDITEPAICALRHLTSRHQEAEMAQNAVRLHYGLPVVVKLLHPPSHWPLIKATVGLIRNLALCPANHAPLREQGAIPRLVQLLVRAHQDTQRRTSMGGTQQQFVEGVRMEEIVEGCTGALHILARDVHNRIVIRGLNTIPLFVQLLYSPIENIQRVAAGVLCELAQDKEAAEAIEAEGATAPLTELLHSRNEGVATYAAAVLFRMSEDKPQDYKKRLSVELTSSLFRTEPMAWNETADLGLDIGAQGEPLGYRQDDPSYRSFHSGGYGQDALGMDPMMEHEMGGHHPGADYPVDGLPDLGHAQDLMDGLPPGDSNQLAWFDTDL
“Ac-PL3-Asp-Npg-B5-Asp-3COOHF-Ala-Ala-Phe-Leu-PyrS2-2F3MeF-2F3MeW-Gln-NH2 (peptide)” displayed an IC50 of 6290 nM.
On the same count and under the same terms, the same measure for “Ac-PL3-Asp-Npg-B5-Asp-3COOHF-Ala-Ala-Phe-Leu-PyrS2-2F3MeF-SbMe2NapA-Gln-NH2 (peptide)”: 79 nM; for “Ac-PL3-Asp-Npg-B5-Asp-[CH2CChCO2H]TriAzDap-Ala-Ala-Phe-Leu-PyrS2-3Thi-BztA-Gln-NH2 (peptide)”: 5 nM; for “Ac-PL3-Asp-Npg-B5-Asp-[CH2CCpCO2H]TriAzDap-Ala-Ala-Phe-Leu-PyrS2-3Thi-BztA-Gln-NH2 (peptide)”: 5 nM.
